Data on three substances can be found in publication PMC10239819.

For assay [1], the target named is Factor B (Homo sapiens) (UniProt P00751). Particulars: cited from earlier work.
The target of assay [2] is C3b prepared from human EDTA plasma (human).
Assay [3] shares this target. The source holds these as a separate data set.
Assay [4] concerns the target C3bB, the AP C3 pro-convertase (factor B complexed with C3b) (human).

Sequence of C3b C3b (P01024 566-670): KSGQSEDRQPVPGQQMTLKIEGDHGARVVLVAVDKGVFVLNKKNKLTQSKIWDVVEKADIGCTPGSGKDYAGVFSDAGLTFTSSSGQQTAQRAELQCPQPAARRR
Sequence of tag-free recombinant human factor D (mature FD) (P00746 26-253): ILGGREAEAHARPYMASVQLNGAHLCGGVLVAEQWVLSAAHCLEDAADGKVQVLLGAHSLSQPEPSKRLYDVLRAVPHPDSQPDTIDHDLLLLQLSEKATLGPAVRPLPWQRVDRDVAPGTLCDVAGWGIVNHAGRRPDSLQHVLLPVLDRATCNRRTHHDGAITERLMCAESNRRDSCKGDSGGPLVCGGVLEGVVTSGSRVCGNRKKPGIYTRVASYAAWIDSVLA
Sequence of Factor B (Homo sapiens) (P00751 26-259): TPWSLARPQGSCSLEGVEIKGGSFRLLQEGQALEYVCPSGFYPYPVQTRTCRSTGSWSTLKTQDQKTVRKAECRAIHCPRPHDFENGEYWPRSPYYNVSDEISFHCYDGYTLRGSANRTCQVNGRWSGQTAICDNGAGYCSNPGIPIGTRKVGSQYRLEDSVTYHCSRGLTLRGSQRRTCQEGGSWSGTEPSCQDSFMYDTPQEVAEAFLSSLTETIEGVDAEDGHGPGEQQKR

As for C3b C3b (from UniProt P01024), the Kd in assay [1] is 1400 nM.

As to “human, serum-derived, purified factor B (natural protein)”, the enhancement of the cleavage of FB by FD (ratio of kobs/[E]T on C3bB and on free FB; SDS-PAGE densitometry of Bb, 37 °C) in assay [2] turned out to be 2e+07 fold. Moreover, in assay [3], the enhancement of the cleavage of FB by MASP-1cf (ratio of kobs/[E]T on C3bB and on free FB; SDS-PAGE densitometry of Bb, 37 °C) is 100 fold.

Consider “tag-free recombinant human factor D (mature FD) (from UniProt P00746 26-253) (enzyme)”, for which, in assay [4], the kobs/[E]T (estimate of kcat/KM) of the cleavage of C3bB (1.1 uM) by FD (0.25 nM), SDS-PAGE densitometry of Bb, 37 °C is 6.5e+06 M⁻¹ s⁻¹.

The Kd is the free concentration of one partner at which half of the binding sites on the other are occupied at equilibrium, for simple one-to-one binding.
